B1: TGF-beta-activated kinase 1 and MAP3K7-binding protein 3, residues 12 to 50; numbered along this chain, Q8N5C8 (parent)
chain: VLHDLRQRFPEIPEGVVSQCMLQNNNNLEACCRALSQES

Variants of: B1
Experiment: abundance fitness (aPCA) (normalised: wild type 0, dead -1); higher = more abundant; growth selection in yeast, the domain comes from the species named
Conditions: Homo sapiens

Abundance fitness, by site and new letter:
L28: S -0.629 | C -0.587 | E -0.471 | V -0.221 | M -0.262 | H -0.285 | G -0.605 | P -0.313 | T -0.684 | A -0.484 | Q -0.527 | R -0.437 | D -0.829 | W 0.007
C20: P -0.51 | T 0.063 | Q -0.175 | R -0.405 | M 0.028 | L -0.06 | Y 0.007 | D 0.048 | W -0.37 | S -0.103 | G -0.26 | A 0.173 | F -0.096 | I 0.109 | E -0.082 | H -0.576
A34: G -0.73 | R -0.49 | N -0.819 | Q 0.028 | L -0.413 | H -0.117 | M -0.168 | T -0.297 | S -0.342 | I -0.04 | D -0.178 | E -0.056 | K -0.353 | C -0.373 | V -0.135
P13: T -0.767 | K -0.51 | I -0.452 | R -0.782 | W -0.771 | H -0.694 | M -0.517 | V -0.774 | Q -0.62 | Y -0.926 | D -0.22 | G -0.666 | S -0.42 | C -0.766 | A -0.513
Q19: H -0.175 | I 0.384 | K 0.139 | N -0.019 | R 0.135 | M -0.004 | C -0.114 | T -0.077 | A 0.186 | P -0.547 | L -0.1 | E 0.128 | W -0.135 | Y -0.345 | S -0.039 | V -0.273
R33: Q -0.017 | D -0.239 | W -0.259 | K -0.023 | A 0.04 | E -0.056 | P -0.731 | V -0.115 | H -0.137 | G -0.454 | C -0.451 | S -0.174 | N -0.315 | Y -0.459 | T -0.127 | F -0.271
V17: S -0.815 | P -0.568 | D -0.624 | N -0.468 | Y -0.811 | Q -0.81 | H -0.7 | A -0.647 | L 0.084 | I 0.266 | F -0.65 | G -0.795 | M -0.395 | T -1.07 | C -0.566 | K -0.955 | R -0.836
A30: I -0.838 | W -0.794 | H -0.248 | R -0.348 | E -0.081 | S -0.402 | Q -0.178 | V -0.55 | K -0.214 | G -0.599 | N -0.174 | M -0.178 | T -0.568 | P -0.716 | C -0.684
E29: L -0.201 | V -0.895
N26: A -0.498 | W -0.808 | V -0.816 | S -0.289 | R -0.746 | E -0.475 | D -0.435 | M -0.317 | L -0.685 | C -0.365 | G -0.144 | P -1.32 | K -0.799 | H -0.316 | F 0.164
N25: D -0.015 | C -0.5 | W -0.819 | V -0.904 | S -0.365 | Q -0.306 | G -0.108 | M -0.548 | A -0.425 | R -0.39 | T -0.788 | P -0.615
G15: D 0.217 | S 0.122 | C 0.03 | H 0.25 | N 0.05 | P 0.003 | M -0.079 | A 0.153 | E 0.281 | V -0.016 | R 0.074 | W 0.087 | L -0.162 | I -0.154 | K 0.135 | Y 0.139 | F -0.138
C31: A -0.551 | P -0.64 | D 0.122 | T -0.219 | W -0.965 | I -0.718 | E -0.467 | S -0.545 | Q -0.786 | K -0.513 | R -0.79 | L -0.914 | G -0.555 | Y -0.895 | M -0.732 | V -0.495
V16: Y 0.122 | Q -0.155 | A -0.297 | P -0.927 | S -0.58 | M -0.073 | C -0.638 | G -0.711 | F -0.71 | R 0.032 | H -0.372 | W -0.683 | N -0.552 | T -0.16 | K -0.114 | D -0.264 | L -0.228 | E -0.105
Q23: A 0.107 | S -0.206 | K -0.189 | V -0.167 | N -0.046 | D 0.271 | I -0.649 | E 0.215 | R -0.06 | L -0.108 | P -0.787 | G -0.722 | H 0.168 | T -0.275 | M -0.105
E14: R -0.668 | H 0.117 | I -0.246 | D -0.308 | V -0.24 | S -0.416 | F -1.02 | K -0.831 | Q -0.255 | T -0.549 | Y -0.256 | L -0.142 | N -0.738 | G -0.829 | M -0.377 | C -0.613 | P -0.143
S18: Q 0.268 | F -0.17 | L 0.23 | H 0.177 | G -0.399 | K 0.278 | T 0.136 | E 0.191 | I -0.035 | Y -0.196 | P -0.939 | R 0.345 | A 0.13 | V 0.218 | D -0.434 | C -0.336 | M 0.222
N24: W -0.638 | V -0.894 | L -0.73 | P -0.989 | M -0.679 | C -0.351 | A -0.747 | H 0.178 | S -0.848 | G -0.878 | R -1.08 | T -0.871 | K -0.843 | Q -0.623 | E -0.329
M21: Y -0.189 | L -0.015 | R -0.872 | H -0.82 | E -0.695 | G -0.811 | S -0.718 | W -0.732 | A -0.347 | T -1.17 | V -0.349 | P -0.68 | Q -0.937 | D -0.691 | F -0.487
N27: A -0.643 | G -0.78 | L -1.12 | R -0.607 | W -0.835 | T -1.01 | Q -0.398 | C -0.831 | P -0.856 | K -0.651 | V -0.764 | S -0.478 | H -0.605
I12: M -0.12 | Q -0.43 | R -0.788 | W -0.737 | T -0.276 | V -0.042 | S -0.825
C32: M -0.076 | D -0.484 | A -0.21 | L -0.291 | R -0.589 | N 0.023 | V 0.176 | S -0.226 | F -0.579 | Q -0.368 | E -0.176 | P -0.664 | H -0.171 | G -0.575 | Y -0.246
L22: T 0.026 | K 0.264 | C -0.377 | D -0.06 | V 0.012 | M 0.041 | G -0.266 | W -0.292 | R 0.152 | E 0.164 | A 0.173 | S -0.045 | H 0.023 | F -0.188 | Q 0.057 | Y -0.213

Source: the Human Domainome abundance scans (Beltran et al. 2025)
